Measured values: the RNAGym collection of RNA variant scans (doi:10.1073/pnas.2313332121)

B1: TPR t1 (parent)
chain: GACCAAUCUGCCCUCAGAGCUCGAGAACAUCUUCGGAUGCAGAGGAGGCAGGCUUCGGUGGCGCGAUAGCGCCAACGUCCUCAACCUCCAAUGCAUCCCACCACAUGAUGAUGCCUGAAGAGCCUUGGUUUUUUG

Variants of: B1
Experiment: polymerase ribozyme fitness, log enrichment relative to wild type (log ratio); higher = more active; in vitro selection for triplet polymerase activity
Procedure, shortened: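 Each subunit of a heterodimeric triplet polymerase ribozyme was mutagenized into a library by PCR, transcribed, and subjected to one round of in vitro selection, run in triplicate. Libraries were annealed with a biotinylated primer, the partner subunit and triplets, incubated frozen at −7 °C, and extended constructs were gel-excised, captured on streptavidin beads and recovered by RT-PCR. Input and output libraries were sequenced on Illumina, keeping genotypes with ≥10 input reads and ≥1 read per output. Fitness is log base 2 of genotype enrichment divided by wild-type enrichment, from inverse-variance-weighted replicate averages.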

| Variant | polymerase ribozyme fitness (log ratio) |
| --- | --- |
| GACCAAUCUGCCCUCAGAGCUCGAGAACUUCUUCGGAUGCAGAGGAGGCAGGCUUCGGUGGCGCGAUAGCGCCAACGUCCUCAACCUCUAAUGCAUCCCACCACAUGAUGAUGCCUGAUGAGCCUUGGUUUUUUG [A29U C89U A119U] | -3.93 |
| GACCAAUCUGCCCUCAGAGCUCGAGAACUUCUUCGGAUGCAGAGGACGCAGGCUUCGGUGGCGCGAUAGCGCGAACGUCCUCAACCUCCAAUGCAUCCCACCACAUGAAGAUGCCUGAAGAGCCUUGGUUUUUUG [A29U G47C C73G U109A] | -0.853 |
| GACCAAUCUGCCCUCAGAGCUCGAGAACUUCUUCGGAUGCAGAAGAGGCAGGCUUCGGAGGCGCGAUAGCGCCAACGUCCUCAACCUCCAAUGCAUCCCACCCCAUGAUGACGCCUGAAGAGCCUUGGUUUUUUG [A29U G44A U59A A103C U112C] | -5.66 |
| GACCAAUCUGCCCUCAGAGCUCGAGAACUUCUUCGGAUGCAGAGGAGGCAGGCUUCGGUGACGCGAUAGCGCCAACGUCCUCAACCUCCAAUGCAUCCCACCACAUGAUGAUGCCUGAAGAGCCUUGGUUUUUUG [A29U G61A] | -1.45 |
| GACCAAUCUGCCCUCAGAGCUCGAGAACUUCUUCGGAUGUAGAGGAGGAAGGCUUCGGUGGCGCGAUGGCGCCAACGUCCUCAACCUCCAAUGCAUCCCACCACAAGAUGAUGCCUGAAGAGCCUUGGUUUUUUG [A29U C40U C49A A68G U106A] | -4.25 |
| GACCAAUCUGCCCUCAGAGCUCGAGAACUUCUUCGGAUGCAGAGGAUGCAGGCUUCGGUGGUGCGAUAGCGCCAACGUCCUCAACCUCCAAUGCAUCCCACCACAUGAUGAUGCCUGAAGAGCCUUGGUUUUUUG [A29U G47U C62U] | -4.34 |
| GACCAAUCUGCCCUCAGAGCUCGAGAACUUCUUCGGAUGCAGAGGAGGCAGGCUUCGGUGGCGCGAUAGCGCCAACGUCCUCGACUUCCAAUGCAUCCCACCACAUGAUGAUGCCUGAAGAGCCUUGGUUUUUUG [A29U A83G C86U] | -2.72 |
| GACCAAUCUGCCCUCAGAGCUCGAGAACUUCUUCGGAUGCAGUGGAGGCAGGCUUCGGUGGCGCGAUAGCGCCAACGCCCUCAACCUCCAAUGCAUCCCACCACAUGAUGAAGCCUGAAGAGCCUUGGUUUUUUG [A29U A43U U78C U112A] | -2.84 |
| GACCAAUCUGCCCUCAGAGCUCGAGAACUUCUUCGGAUGCAGAGGAGGCAGGCUUCGGUGGCGCGAUAGCGCCAACGUCCUCCACCUCCAAUGCAUCCCACCACAUGAUGAUGCCUGAAGAGCAUUGGUUUUUUG [A29U A83C C124A] | -0.511 |
| GACCAAUCUGCCCUCAGAGCUCGAGAACUUCUUCGGAUGCAGAGGAGGCAGGCUUCGGUGGCGCGCUAGCGCCAACGUCCUCAACCUCCAAUGCAUCCCACCACAUGAUGAUGCCUGAAGAGCCUUGGUUUUUUG [A29U A66C] | -2.83 |
| GACCAAUCUGCCCUCAGAGCUCGAGAACUUCUUCGGAUGCAGAGGAGGCAGGCUUGGGUGGCGCGAUAGCGCCAACGUCCUCAAACUCCAAUGCAUCCCACCACAUGAUGAUGCCUGAAGAGCCUUGGUUUUUUG [A29U C56G C85A] | -4.99 |
| GACCAAUCUGCCCUCAGAGCUCGAGAACUUCUUCGGAUGCAGAGGAGGCAGGCUUCGGUGGGGCGAUAGCGCCAACGUCCUCAACCUCCAAUGCAUCCCACCACAAGAUGAUGCCUGAAGAGCCUUGGUUUUUUG [A29U C62G U106A] | -2.35 |
| GACCAAUCUGCCCUCAGAGCUCGAGAACUUCUUCGGAUGCAGAGGAGGCAGGCUUCGGUGGCGCGAUAGCGCCAACGUCCUCAACCUCCAAUGCAUCACACCACAUGAGGAUGCCUGAAGAGCCUUGGUUUUUUG [A29U C98A U109G] | -4.46 |
| GACCAAUCUGCCCUCAGAGCUCGAGAACUUCUUCGGAUGCAGAGGAGGCAGGCUUCGGUGGCGCGAUAGCGCCAACGUCCUCAACCUCCAAUGCAUCCCACCACAUGAUGAUGCAUGAAGAGCCUUGGUUUUUUG [A29U C115A] | -1.59 |
| GACCAAUCUGCCCUCAGAGCUCGAGAACUUCUUCGGAUGCAGAGGAGGCAGGCUUCGGUGGCGCGAUAGCUCCAACGUCCUCAACCUCCAAUGCAUCCCACCACAUGAUGAUGCCUGAAGAGCCUUGGUUUUUUG [A29U G71U] | -1.99 |
| GACCAAUCUGCCCUCAGAGCUCGAGAACUUCUUCGGAUGCAGAGGAGGCAGGCUUCGGUGGCGCGAUAGCGCCAACGUCCUCAACCUCCAAUGCAUCCCACCACAUGAUGAUGCCUGAAGAGCCUUAGUUUUUUG [A29U G127A] | -4.12 |
| GACCAAUCUGCCCUCAGAGCUCGAGAACUUCUUCAGAUGCAGAGGAGGCAGGCUUUGGUGGCGCGAUAGCGUCAACGUCCUCAACCUCCAAUGCAACGCACCACAUGAUGAUGCGUGAAGAGCCUUGGUUUUUUG [A29U G35A C56U C72U U96A C98G C115G] | -7.16 |
| GACCAAUCUGCCCUCAGAGCUCGAGAACUUCUUCGGAUGCAGAGGAGGCAGGCUUCGGUGGCGCGAUAGCGCCAACGUCCUCAACCUCCAAUGCAUCCCACCACAUGAUGAUGCCUGAAGAGCUUUGGUUUUUUG [A29U C124U] | -0.47 |
| GACCAAUCUGCCCUCAGAGCUCGAGAACUUCUUCGGAUGCAGAGGAGGCAGGCUUCGGUGGCGCGAUAGCGCCAACGUCCUCAACCUCCAAUGAAUCCCACCACAUGAUGUUGCCUGAAGAGCCUUGGUUUUUUG [A29U C94A A111U] | -0.272 |
| GACCAAUCUGCCCUCAGAGCUCGAGAACUUCUUCGGAUGCAGAGGAGGCAGGCUUCGGUGGCUCGAUAGCGCCAACGUCCUCAACCUCCAAUGCAUCCCACCACAUGAUGAUGCCUGAAGAGCCUUGGUUUUUUG [A29U G63U] | -2.58 |
| GACCAAUCUGCCCUCAGAGCUCGAGAACUUCUUCGGAUGAAGAGGAGGCAGCCUUCGGUGGCGCGAUAGCGCCAACGUCCUCAACCUCCAAUGCAUCCCACCACAUGAUUAUGCCUGAAGAGCCUUGGUUUUUUG [A29U C40A G52C G110U] | -3.01 |
